Experimental findings from US5633145, “TNFα receptor-derived binding protein” (The Mathilda and Terence Kennedy Institute of Rheumatology, dated 1997) are described below.

Test [1] has as its target T1, recombinant human TNFβ (human, UniProt P01374).
T1 sequence: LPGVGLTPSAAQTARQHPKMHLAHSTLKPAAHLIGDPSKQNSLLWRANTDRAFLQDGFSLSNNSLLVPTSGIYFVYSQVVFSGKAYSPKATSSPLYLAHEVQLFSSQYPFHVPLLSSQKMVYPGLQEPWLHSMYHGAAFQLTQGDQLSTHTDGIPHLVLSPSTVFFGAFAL
Briefly: competition with 1 nM 125I-TNFα on COS-7 cells transfected with the TNFR cDNA; competitor 125I-TNFα.
Protocol: (§1) COS cells transfected with the TNFα receptor cDNA (prTNFR, 1300 bp EcoRI fragment) were incubated for 24 hours and then seeded into six well tissue culture plates (Nunc) at 4.5 ×10^8 cells per well. The cells were incubated for a further 48 hours and then receptor expression was quantitated by radioligand binding for 2 hours at 4° C. […] Binding data was analysed by the method of Scatchard (14).

Test [2] concerns the target recombinant human TNFα (human, UniProt P01375, radioiodinated (125I, Iodogen method) in the radioligand binding assays; unlabelled as competitor and in the cytotoxicity assays). Description: radioligand binding of 125I-TNFα to COS cells transfected with prTNFR, Scatchard analysis, 4 °C.
Protocol: as §1
The resulting plasmid was transfected into COS cells which were analyzed for TNF receptor expression after three days.

B1: recombinant human TNFα 55 kD receptor expressed in COS-7 cells from plasmid prTNFR (receptor)
chain: DSVCPQGKYIHPQNNSICCTKCHKGTYLYNDCPGPGQDTDCRECESGSFTASENHLRHCLSCSKCRKEMGQVEISSCTVDRDTVCGCRKNQYRHYWSENLFQCFNCSLCLNGTVHLSCQEKQNTVCTCHAGFFLRENECVSCSNCKKSLECTKLCLPQIENVKGTEDSGTTVLLPLVIFFGLCLLSLLFIGLMYRYQRWKSKLYSIVCGKSTPEKEGELEGTTTKPLAPNPSFSPTPGFTPTLGFSPVPSSTFTSSSTYTPGDCPNFAAPRREVAPPYQGADPILATALASDPIPNPLQKWEDSAHKPQSLDTDDPRTLYAVVENVPPLRWKEF
As for B1, the binding result in test [1] is “binds”. For the same molecule, the Ka in test [2] stood at 2.5e+09 M⁻¹.
